Results: IntAct's records for PubMed 18029035

B1: Coiled-coil domain-containing protein 50 (Homo sapiens), Q8IVM0 (parent)
chain: MAEVSIDQSKLPGVKEVCRDFAVLEDHTLAHSLQEQEIEHHLASNVQRNRLVQHDLQVAKQLQEEDLKAQAQLQKRYKDLEQQDCEIAQEIQEKLAIEAERRRIQEKKDEDIARLLQEKELQEEKKRKKHFPEFPATRAYADSYYYEDGGMKPRVMKEAVSTPSRMAHRDQEWYDAEIARKLQEEELLATQVDMRAAQVAQDEEIARLLMAEEKKAYKKAKEREKSSLDKRKQDPEWKPKTAKAANSKSKESDEPHHSKNERPARPPPPIMTDGEDADYTHFTNQQSSTRHFSKSESSHKGFHYKH

Variants of: B1
Details: with ubb_human UBB

| Variant | effect of a mutation on the interaction |
| --- | --- |
| MAEVSIDQSKLPGVKEVCRDFAVLEDHTLAHSLQEQEIEHHLASNVQRNRLVQHDLQVAKQLQEEDLKAQAQLQKRYKDLEQQDCEIAQEIQEKLAIEAERRRIQEKKDEDIARLPQEKELQEEKKRKKHFPEFPATRAYADSYYYEDGGMKPRVMKEAVSTPSRMAHRDQEWYDAEIARKLQEEELLATQVDMRAAQVAQDEEIARLLMAEEKKAYKKAKEREKSSLDKRKQDPEWKPKTAKAANSKSKESDEPHHSKNERPARPPPPIMTDGEDADYTHFTNQQSSTRHFSKSESSHKGFHYKH [L116P] | decreasing interaction |
